The data set can be described thus: yeast display, Sf9 membrane polyspecificity reagent, FACS + sequencing; frameworks hold sequencing errors. A digest of the protocol: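 Using colony PCR, genes from sorted yeast display clones were amplified, then sequenced on MiSeq at 2 × 250 and filtered by CDR length. The clones had been stained with 10% biotinylated, detergent-solubilized Sf9 membrane reagent for 1 hour at 4 °C and sorted by FACS into low and high (top ~1%) gates on anti-HA and streptavidin fluorescence. Polyreactivity labels come from the gate of origin.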
For the sequence “QVQLVESGGRLVQAGGSLRLSCAASGFTFGAYAMGWYRQAPGKERELVATIRYSGDSTYYADSVKGRFTISRDNAKNTVYLQMNSLKPEDTAVYYCAADVYGGIGYDYWGQGTQVTVSS”, the “polyreactivity (PSR sort gate)” value is on record as “low polyreactivity”. Turning to “QVQLVESGGGLVQAGGSLRLSCAASGITFAFYAMGWYRQAPGKERELVAAISWSGTRTYYADSVKGRFTISRDNAKNTVYLQMNSLKPEDTAVYYCAADFQAGDKLYDYWGQGTQVTVSS”, the “polyreactivity (PSR sort gate)” value is recorded as “low polyreactivity”.

As for “QVQLVESGGGLVQAGGSLRLRCAASGRIFPDNAMGGYRQAPGKERELVAAITYSGGSTSYADSVKGRFTISRDNAKNTVYLQMNRLKPEDTAVYYCIKAGGTSYDYVRVDKFPGVYWGQGTQVTVSS”, the “polyreactivity (PSR sort gate)” value is reported as “low polyreactivity”. As for “QVQLVESGGGLVQAGGSLRLSCAASGRTIDPNAMGWYRQAPGKERELVAAITRTGVRTYYADSVKGRFTISRDNAKNTVYLQMNSLKPEDTAVYYCNRYGARSNDYWGQGTQVTVSS”, the “polyreactivity (PSR sort gate)” value is “low polyreactivity”.

Turning to “QVQLVESGGGLDQAGGSLRLSCAASGRTLSRYAMGWYRQAPGKERELVASMSWSGGRTYYADSVKGRFTISRDNAKNTVYLEMNSLKPEDTAVYYCAAVYVTAPFDYWGQGTQVTVSS”, the “polyreactivity (PSR sort gate)” value is “low polyreactivity”.

Consider “QVQLVESGGGLVQAGGSLRLSCAASGYTFSRYAMGWYRQAPGKERELVAAISSRGGSTYYADSVKGRFTISRDNAKNTVYLQMNSLKPADTAVYYCAADYGVGYGIVGSYYWGQGTQVTVSS”, for which the “polyreactivity (PSR sort gate)” value is listed as “high polyreactivity”.

In the case of “QVQLVESGGGLVQSGGSLRLSCAASGRIFFYYAMGGYRQAPGKERELVATIRDGGGTTYYADSVKRRFTISIDNAKNTVYLQMNSLKTDDTAFYYCNVDVWRKYYYWGQGTQVTVSS”, the “polyreactivity (PSR sort gate)” value is listed as “low polyreactivity”. Then “QVQLVESGGGLVQAGGSLRLSCAASGFIFIYNAMGWYRQAPGKEREMVAAITGSDGGTFYADSVKGRFTISRDNAKNTVYLQLNSLKPEDTAVYYCNADNGSRQSRDGYESWGQGTQVTVSS”, with “low polyreactivity”; and “QVQLVDSGGGLVQAGGSLRLSCAASGRTFKRYDMGWYRQAPGKEREFVAAISWTGGSTYYADTVKGRFTISRDHAKNSVYLQMNSLKPEDTAVYYCARKFLWQGFVYWGQGTQVTVSS”, with “low polyreactivity”; and “QVQLVESGGGLVQAGGSLRLSCAASGITFRRYTMGWYRQPPGKERELVATISLSDGNTYYADSVKGRFTISRDNAKNTVYLQMNSLKPEDTAVYYCNARHTWHQTYDYWGQGTQVTVSS”, with “low polyreactivity”. Consider “QVQLVESGGGLVQAGGSLRLSSAASGRTFTTYAMGWYRQAHGKERELVAAISGSGGSTYYADSVKGRFTISRDNAKNTVYLQMNSLKPEDTAVYYCATAYYYHGGYYYPYDDYWGQGTQVTVSS”, for which the “polyreactivity (PSR sort gate)” value is “low polyreactivity”. On to “QVQLVESGGGLVQAGGSLRLSSAASGITFRRYAMGWYRQAPGKERELVASITSGGSTNYADSVKGRFTISRDNAKYTVYLQMNSLKPDDTAVYYCAADSRWGMDYWGQGTQVTVSS”, for which the “polyreactivity (PSR sort gate)” value is “high polyreactivity”. On to “QVQLVESGGRLVQAGGSLRLSCAASGRIFSRYAMGWYRPAPGKERELVATITWSGGSTYYADSVKGRFTISRDNAKNTVYLQMNSLKPEDTAVYYCNADVTYLYKMDYWGQGTQVTVSS”, for which the “polyreactivity (PSR sort gate)” value is on record as “low polyreactivity”. Under “QVQLEESGGGLVQAGGSLRLSCAASGFTFGGYAMGWYRQAPGKERELVAAITGSGGNTFYADSVKGRFTISRDYAKNTVYLQMNCLKPEDTAVYYCAKSWYPWSSYGYYRRYDSWGQGTQVTLSS” stands “low polyreactivity”; under “QVQLVESGAGLVQAGGSLRLSCAASGFIFRYYAMGWYRQAPGKERELVARITPRGGRTYYADSVKGRFTISRDNAKNTVYLQMNSLKPEDTAVYYFAAVYPVLHEFGYWGQGTQVTVSS”, “high polyreactivity”; under “QVQLVESGGGLVHAGGSLRLSCAASGRIFVRYAMGWYRQAPGKERELVAAISSSGSSTYYADSVKGRFTISRDNAKNTVYLQMNSLKPEETAVYYCAAASVRYPRYEYWGQGTQVTVSS”, “high polyreactivity”.

Consider “QVHLVESGGGLVQAGGSLRLSCAACGSNLFVNTMGWYRQAPGKERELVAAISWIDGSTYYADSVKGRFTISRDNAKNSVYLHMNSLKPEDTAVYYCAASTYWREYDYWGQGTQVNVSS”, for which the “polyreactivity (PSR sort gate)” value is given as “low polyreactivity”. Consider “QVHLVESGGGLVQAGGSLRLSCAASGSTFRDYDMGWYRQAPGKERELVAAISLSGGLTHYADSVKGRFTISRDNGKNTVYLQMNSLKPEDTAVYYCAARNTGPVQYYYWGQGTQVTVSS”, for which the “polyreactivity (PSR sort gate)” value is reported as “low polyreactivity”.

Turning to “QVQLVESGGGLVQAGGSLRLSCAASGSIFRANALGWYRPAPGKERELVAAISASGGRTYYADSVKGRFTISRDNAKNTVYLQMNSLKPEDTAVYYCNAYYGYLYHYTYDYWGQGTQVTVSS”, the “polyreactivity (PSR sort gate)” value is on record as “high polyreactivity”. Consider “QVQLVESGGGLVQAGGSLRLSCAASGRIFGVYAMGWYRQAPGKERELVAVINGRGSRTYYADSVKGRFTISRDNAKNTVYLQMNSLKPEDTAVYYCAAGYPDSEYDYWGQGTQVTVSS”, for which the “polyreactivity (PSR sort gate)” value is “high polyreactivity”. For “QVQLVESGRGLVQAGGSLRLSCAASGRILDSNAMGWDRQAPGKESELVAAITWRGGSTYYADSVKGRFTISRDNAKNTVYLQMNSLKPEDTAVYYCNARWSKTAHTRFGYWGQGTQVTVSS”, the “polyreactivity (PSR sort gate)” value was “low polyreactivity”.

For the sequence “QVQLVESGGGLVQAGGSLRLSCAASGRIFFLNTMGWYRQAPGKERELVAAITRGGSTYYADSVKGRFTISRDNAKNTVYLQMNSLKPEDTAVYYCAADVYGGIGYDYWGQGTQVTVSS”, the “polyreactivity (PSR sort gate)” value is reported as “low polyreactivity”. Under “QVQLEESGGGLVQAGGSLRLSCAASGIIFIDYAMGWYRQAPGKERELVAAISNGGSTYYADSVKGSFTISRDNAKNTVYLQMNSLKPEDTEVYYCAAGGALASHWSKKLYDYWGQGTQVTVSS” stands “low polyreactivity”; under “QVQLVESGGGLVHAGGRLRLSCAASGRIFFYYAMGWYRQAPGKERELVAAISQSGGSTYYADSVKGRFTISRDNAKNTVYLQMNSLKPEDTSVYYCNAADPYYVTSAVAGDYWGQGTQVTVSS”, “low polyreactivity”; under “QVQLVESGGGLVQAGGSLRLSCAASGSIFAGYAMGWYRQAPGKERELVAAISRSGGRTYYADSVKRRFTISRDNAKNTVNLQMNSLKPEDTAVYYCAAHRRSANDYDYWGQGTQVTVSS”, “high polyreactivity”. “QVQLGESVGGLVQAGGSLRLSCAASGFTSRKNAMGWYRQAPGKERELVAAITQSSGRTYYADSVKGRFTISRVNAKNTVYLQMNRLKPEDTAVYYCAARRGGEDDYWGQGTQVTVSS”: the “polyreactivity (PSR sort gate)” value is listed as “low polyreactivity”. Under “QVQLVESGGGLVQAGGSLRLSCAASGRTFYYYAMGWYIQAPGKERELVATITKSSGSTSYADSVKGRFTISRDNAKNTVYLQMNSLKPEDTAVYYCAKVFRSGGVYRYDYWGQGTQVTVSS” stands “high polyreactivity”.

In the case of “QDQLVESGGGLVQAGGSLRLSCAASGRTFADYAMGWYRQAPGKERELVAAISWRGGSTYYADSVKGRFTISRDNAKNTVYLQLNSLNPEDTAVYYCNKAYPADYDYWGQGTQVTVSS”, the “polyreactivity (PSR sort gate)” value was “low polyreactivity”. For the sequence “QVQLVESGGGLVQAGGSLRLSCAASGRTFTRYPMGWYRQAPGKERELVAAITRGGSTYADSVKGRFTISRDNAKNTVYLQMNSLKPEDTAVYYCAAYWGFYPWRAYPYDYWGQGTQVTVSS”, the “polyreactivity (PSR sort gate)” value is given as “high polyreactivity”. Then “QVQLVESGGGLVQAGGSLRLSCAASGSIFPYYAMGWYRQAPGKERELVAAITWSGGNTYYADSVKGRFTISRDNAKNTVYLQMNSLKPEDTAVYYFNALYRKYTGYDGYDYWGQGTQVTVSS”, with “high polyreactivity”. Under “QVQLVESGGGLVQAGGSLRLSCAASGRTFWGYALGWYRQAPGKERELVAAISSGGETTYADSVKGRFTISRDNAKNTVYLQMNSMKPEDTAVYYCAADRWITVYILGADGYDYWGQGTQVTVSS” stands “low polyreactivity”. In the case of “QVQLVESGGGLVQAGGSLRLSCAASGSTFDPYGMGWYRQAPGKERELVAAITSSGRTNYADSVKGRFTISRDNAKNTVYLQMNSLKPEDTAVYYCATRKERYFYRGYEYWGQGTQVTVSS”, the “polyreactivity (PSR sort gate)” value is “low polyreactivity”. Consider “QVQLVESGGGLVQAGGSLLLSCAASGSIFDAYAMGWYRQSRGKERELVAAITSGGSTYYADSVKGRFTISRDNAKNNVYLQMNSLKPEDTAVYYCAAQYYDYKTTYDYWGQGTQVTVSS”, for which the “polyreactivity (PSR sort gate)” value is on record as “high polyreactivity”.

“QVQIVESGGGLVQAGGSLRLSCAASGRTFAYYSMGWYRPAPGKEREFVAAISRSGGSTYYADSVKGRFTISRDNAKNTVYLQMNSLKPEDTAVYYCNARYIWKQYRYDYWGQGTQVTVSS”: the “polyreactivity (PSR sort gate)” value is “high polyreactivity”. Under “QVQLVESGGGLVQAGGSLRLSCAASGRIFRSYALGWYRQAPGKERELAAAISYGGGSTYYADSVKGRFTISRDNAKNTVYLQMNSLKPEDTAVYYCAARGYSRPMDYWGQGTQVTVSS” stands “high polyreactivity”; under “QVQLVESGGGLVQAGGSLRLSCAASGRTIRWYTMGWYRQAPGKERELVAGISSSGGSTYYAESVKGRYTISRDYAKNTVYLQMNSLKPEDTAVYYCAASAAYYGFYKSVSYEYWGQGTQLTVSS”, “low polyreactivity”; under “QVQLVESGGGLVQAGGSLRLSCAASGSTFLGYAMGWYRQAPGKERELVAAITYRGTRTYYADSVKGRFTISRDYAKNTVYLQMNSLKPEDTTVYYCAADRYIGTVEYDYWGQGTQVTVSS”, “high polyreactivity”. Under “QVQLVESGGGLVQAGGSLRLSCAASGRIFSYYAMGWYRQAPGKERELVARITSRGASTYYADSVKGRFTISRDNAKNTVYLQMNSLKPEDTAVYYCATDRYRIYPDYDYWGQGTQVTVSS” stands “high polyreactivity”. For “QVQLVESGGGLVQAGGSLRLSCAASGFTFYRYAMGWYRQAPGKERELVAAISTSGVSTYYADSVKGRFTISRDNAKNTVYLQMNSLKPEDTAVYYCAKAGWRGSYIYYRFRVGYDSWGQGTQVTVSS”, the “polyreactivity (PSR sort gate)” value is “high polyreactivity”.

“QVQLVESGGGLVQAGGSLRLSCAATGTFRRYAMGWYRQAPGKERELVAAITRNGGSTYYADSVKGRFTISRDNAKNTVYLQMNSLKPEDTAVYYCAAGLFWGGFRQWTDHHFDCDYYWGQGTQVTVSS”: the “polyreactivity (PSR sort gate)” value is “high polyreactivity”.

For the sequence “QVQLVESGGGLVQEGGSLSLSCAASGSTFTVYNMGWYRKAPGEERELVAANSRRGDSTYYADSVKGRFTISRDNAKNTVYSQMHSLKPEETAVYYSNARSAYGTGNQRGRRYYWGQGTEVTVSS”, the “polyreactivity (PSR sort gate)” value was “high polyreactivity”.

The values above are taken from the nanobody polyreactivity screen of Harvey et al. (2022).
